Measurements reported in patent publication US20260235601, “APTAMER BASED DETECTION OF SARS-COV-2 INFECTION” (COUNCIL OF SCIENTIFIC & INDUSTRIAL RESEARCH, published 2026).
Numbering of substitutions follows the chain as printed.

B1: AptRBD5 (ssDNA)
DNA: ATGCGGATCCCGCGCATTTAAAGGGAGACCTATGGGTTTGTCCGATTAGCTGCGCGAAGCTTGCGC
B2: AptRBD8.1 (ssDNA)
DNA: ATTTAAAGGGGGCGCTCCGTATGGGTTTGTCCGATTAGCT
B3: AptRBD4 (ssDNA)
DNA: ATGCGGATCCCGCGCATTTAAAGCGTCGATGCGTATGGGTTTGTCCGATTAGCTGCGCGAAGCTTGCGC
B4: AptRBD3 (ssDNA)
DNA: ATGCGGATCCCGCGCATTTAAAGCGGTTCGATGCGTATGGGTTTGTCCGATTCGGTGCGCGAAGCTTGCGC
B5: AptRBD6 (ssDNA)
DNA: B4 DNA with G26C, C53A, G55C
B6: AptRBD9 (ssDNA)
DNA: ATGCGGATCCCGCGCCCGACGTCGCATGCTCCCGGCCGCCATGGCGGCCGCGGGAATTCGATTAGCGCGAAGCTTGCGC
B7: AptRBD6.1 (ssDNA)
DNA: ATTTAAAGCGCTTCGATGCGTATGGGTTTGTCCGAT
B8: AptRBD3.1 (ssDNA)
DNA: ATTTAAAGCGGTTCGATGCGTATGGTTTGTCCGATTCGGT
B9: AptRBD3.2 (ssDNA)
DNA: ATTTAAAGCGGTTCGATGCGTATGGTTTGTCCGAT
B10: AptRBD3.3 (ssDNA)
DNA: AGCGGTTCGATGCGTATGGTTTGTCCGAT
B11: AptRBD8 (ssDNA)
DNA: ATGCGGATCCCGCGCATTTAAAGGGGGCGCTCCGTATGGGTTTGTCCGATTAGCTGCGCGAAGCTTGCGC
B12: AptRBD2 (ssDNA)
DNA: ATGCGGATCCCGCGCATATTAAAGGGGAGGCTCCCTATGGGTTTGTCCGATTAGCTGCGCGAAGCTTGCGC

Molecular target: SARS-CoV-2 spike receptor-binding domain (RBD) (SARS-CoV-2 (Wuhan strain), UniProt P0DTC2 P0DTC2:319-541)
Assay: ELONA
Conditions: tags: N-terminal His tag, pET-15b, E. coli BL21 Star (DE3), about 26 kDa

Binder	binding result	activity	other results
B1	binds	–	–
B2	–	8 ng/mL	–
B3	binds	–	–
B4	–	–	binding signal: 0.75 absorbance
B5	–	–	binding signal: 0.7 absorbance
B6	binds	–	–
B7	–	4 ng/mL	–
B8	–	4 ng/mL	–
B9	–	4 ng/mL	–
B10	–	4 ng/mL	–
B11	–	–	binding signal: 0.75 absorbance
B12	binds	–	–
